# From PMC8616923, “Initiation of cytosolic plant purine nucleotide catabolism involves a monospecific xanthosine monophosphate phosphatase” (Nature Communications, 2021)
# T1: XMPP (XMPP-HAStrep; SDTL1) (Arabidopsis thaliana, UniProt F4ISS8)
# T1 construct: gene At2g32150; monomer
# T1 sequence (F4ISS8 1-263): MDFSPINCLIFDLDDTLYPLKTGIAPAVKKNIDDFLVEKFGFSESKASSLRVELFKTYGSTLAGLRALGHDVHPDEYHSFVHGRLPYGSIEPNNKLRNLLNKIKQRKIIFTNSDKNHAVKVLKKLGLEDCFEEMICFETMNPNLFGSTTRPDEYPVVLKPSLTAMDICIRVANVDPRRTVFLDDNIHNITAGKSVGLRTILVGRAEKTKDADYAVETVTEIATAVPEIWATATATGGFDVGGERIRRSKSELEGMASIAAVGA
# T2: XMPP (C-terminal His-tagged full-length XMPP) (Arabidopsis thaliana, UniProt F4ISS8)
# T2 construct: gene At2g32150; full-length (13 residues beyond Ser250), C-terminal His tag, expressed in E. coli, HisTrap purified; monomer
# T2 sequence (F4ISS8 1-263): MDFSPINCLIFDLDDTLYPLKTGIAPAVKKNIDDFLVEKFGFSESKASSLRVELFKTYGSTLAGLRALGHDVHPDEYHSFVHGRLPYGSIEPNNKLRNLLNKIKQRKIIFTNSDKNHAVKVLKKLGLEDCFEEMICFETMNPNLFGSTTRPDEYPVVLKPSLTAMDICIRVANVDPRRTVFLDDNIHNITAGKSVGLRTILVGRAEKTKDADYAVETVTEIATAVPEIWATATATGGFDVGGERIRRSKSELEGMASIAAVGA
# Assays:
# [1] = biological target: T1, XMPP (XMPP-HAStrep; SDTL1); experiment: inhibition of XMP hydrolysis (phosphate assay); type: biochemical; settings: 10 μM XMP as substrate; 22 °C
# [2] = biological target: T2, XMPP (C-terminal His-tagged full-length XMPP); experiment: EnzChek phosphate assay (MESG / purine nucleoside phosphorylase), initial rates; type: biochemical; settings: 30 °C, pH 7.5 (50 mM Tris), 1.25 mM MgCl2
# [3] = biological target: T2, XMPP (C-terminal His-tagged full-length XMPP); experiment: as above; type: biochemical; settings: 30 °C, pH 7.5 (50 mM Tris), 1.25 mM MgCl2; remark: listed apart in the source
# purified protein = substrate: O=c1[nH]c(=O)c2ncn([C@@H]3O[C@H](COP(=O)(O)O)[C@@H](O)[C@H]3O)c2[nH]1; experiment: purified protein; type: biochemical, Arabidopsis thaliana; settings: 22 °C
# [4] = substrate: O=c1[nH]c(=O)c2ncn([C@@H]3O[C@H](COP(=O)(O)O)[C@@H](O)[C@H]3O)c2[nH]1; experiment: EnzChek phosphate assay (MESG / purine nucleoside phosphorylase), initial rates; type: biochemical, Arabidopsis thaliana; settings: 30 °C, pH 7.5 (50 mM Tris), 1.25 mM MgCl2
# Protocol: EnzChek phosphate assay (MESG / purine nucleoside phosphorylase), initial rates on XMPP (C-terminal His-tagged full-length XMPP) | enzymatic activities and kinetic constants of XMPP variants were determined
molecule,measurement,setting,value
O=c1[nH]c(=O)c2ncn([C@@H]3O[C@H](CO)[C@@H](O)[C@H]3O)c2[nH]1 [xanthosine],inhibition,[1],"For XMPP, we confirmed an inhibition by xanthosine"
O=c1[nH]c(=O)c2ncn([C@@H]3O[C@H](COP(=O)(O)O)[C@@H](O)[C@H]3O)c2[nH]1 [XMP],KM,[2],"hydrophobic residues Val28, Ile31, and Phe55 that shape the xanthine-binding pocket"
same,KM,[3],"direct and indirect hydrogen bonds to Thr61, Lys29, and Arg51"
"XMPP (XMPP-HAStrep; SDTL1) (Arabidopsis thaliana) (protein, monomer) MDFSPINCLIFDLDDTLYPLKTGIAPAVKKNIDDFLVEKFGFSESKASSLRVELFKTYGSTLAGLRALGHDVHPDEYHSFVHGRLPYGSIEPNNKLRNLLNKIKQRKIIFTNSDKNHAVKVLKKLGLEDCFEEMICFETMNPNLFGSTTRPDEYPVVLKPSLTAMDICIRVANVDPRRTVFLDDNIHNITAGKSVGLRTILVGRAEKTKDADYAVETVTEIATAVPEIWATATATGGFDVGGERIRRSKSELEGMASIAAVGA",Km,purified protein,3.9 ± 0.2 µM
same,kcat,purified protein,9.2 ± 0.1 s⁻¹
"XMPP (C-terminal His-tagged full-length XMPP) (Arabidopsis thaliana) (protein, full-length (13 residues beyond Ser250), C-terminal His tag, expressed in E. coli, HisTrap purified; monomer) MDFSPINCLIFDLDDTLYPLKTGIAPAVKKNIDDFLVEKFGFSESKASSLRVELFKTYGSTLAGLRALGHDVHPDEYHSFVHGRLPYGSIEPNNKLRNLLNKIKQRKIIFTNSDKNHAVKVLKKLGLEDCFEEMICFETMNPNLFGSTTRPDEYPVVLKPSLTAMDICIRVANVDPRRTVFLDDNIHNITAGKSVGLRTILVGRAEKTKDADYAVETVTEIATAVPEIWATATATGGFDVGGERIRRSKSELEGMASIAAVGA",Km,[4],8.1(0.8) μM
same,kcat,[4],16.5(0.33) s^-1
